The source of these data is patent US20030129296A1.

Assay [1] deals with Cy3-labeled mouse monoclonal antibody (Amersham) (mouse). The experiment in a line: fluorescence imaging of 0.8 µm capture particles on epoxy-hydrogel slides; dilution series of the Cy3-labeled target, overnight incubation.
Assay [2] addresses mouse IgG labeled with Alexa Fluor 488 (Molecular Probes, Inc., A-11243 anti-biotin, mouse monoclonal 2F5, Alexa Fluor 488 conjugate) (mouse). Put plainly: net median particle fluorescence divided by that of the blank (0 nM) particles; labeled target at 1 nM, 2 h.
Assay [3] shares this target. Put plainly: fluorescence imaging of film-immobilized capture particles, film background subtracted; labeled target at 100 nM, 2 h.
Assay [4] shares this target. The experiment in a line: fluorescence imaging of film-immobilized capture particles; labeled target at 1 nM, 2 h.
Assay [5] has the same target. Put plainly: ratio of particle fluorescence to film background fluorescence; labeled target at 100 nM, 2 h.
Assay [6] shares this target. The experiment in a line: fluorescence imaging of film-immobilized capture particles; labeled target at 10 nM, 2 h.
Assay [7] shares this target. Put plainly: fluorescence imaging of film-immobilized capture particles; labeled target at 100 nM, 2 h.
The target is the same in assay [8]. The experiment in a line: fluorescence imaging of film-immobilized capture particles, film background subtracted; labeled target at 1 nM, 2 h.
Assay [9] shares this target. The experiment in a line: net median particle fluorescence divided by that of the blank (0 nM) particles; labeled target at 10 nM, 2 h.
Assay [10] shares this target. Put plainly: net median particle fluorescence divided by that of the blank (0 nM) particles; labeled target at 100 nM, 2 h.
The target is the same in assay [11]. The experiment in a line: fluorescence imaging of film-immobilized capture particles, film background subtracted; labeled target at 10 nM, 2 h.
Assay [12] has the same target. The experiment in a line: ratio of particle fluorescence to film background fluorescence; labeled target at 1 nM, 2 h.
The target is the same in assay [13]. The experiment in a line: ratio of particle fluorescence to film background fluorescence; labeled target at 10 nM, 2 h.

Turning to “0.8-µm-diameter particles coated with goat-anti-mouse antibody”, in [1], the detection level came to 1 pM.
In the case of “goat anti-mouse IgG(Fc) coated particles, 3.2 µm in diameter (Spherotech, Inc., MPFc-30-5) (antibody)”, the values for the MPF/MPF0 in assay [2], in [9] and in assay [10] were 58.2, 99.5 and 107, respectively. The Net Median Particle Fluorescence, MPF worked out at 43 cps in [3], 23 cps in assay [8] and 40 cps in [11]. Further, the Particle Fluorescence Rate, Average in [4] was 29.6 cps; in [6] it was 44.5 cps; in assay [7] it was 50.7 cps. Further, the figures for the Particle Fluorescence Rate, Maximum in assay [4], in assay [6] and in assay [7] were 62.6 cps, 66.2 cps and 74.1 cps, respectively. In addition, the Particle Fluorescence Rate, Median in [4] amounted to 28.1 cps; in assay [6], 46.4 cps; in assay [7], 50.8 cps. In addition, the Particle Fluorescence Rate, Minimum was found to be 14.8 cps in assay [4], 12 cps in [6] and 34.1 cps in [7]. Further, the MPF/FBF amounted to 6.41 in assay [5], 5.97 in assay [12] and 7.45 in assay [13].
